{
  "source": "patent US20140087995A1",
  "about": "(published 2014)",
  "binders": {"B1": {"name": "N^α1-[(4S)-4-carboxy-4-(19-carboxynonadecanoylamino)butanoyl]-[Glu14,Arg17,Pro21,Pro27,His34]-h-amylin (peptide)", "peptide": "{C20 diacid-γGlu}-KCNTATCATQRLAEFLRHSSPNFGAIPSSTNVGHNTY-NH2", "modifications": "disulfide 2-7", "SMILES": "CC[C@H](C)[C@H](NC(=O)[C@H](C)NC(=O)CNC(=O)[C@H](Cc1ccccc1)NC(=O)[C@H](CC(N)=O)NC(=O)[C@@H]1CCCN1C(=O)[C@H](CO)NC(=O)[C@H](CO)NC(=O)[C@H](Cc1c[nH]cn1)NC(=O)[C@H](CCCNC(=N)N)NC(=O)[C@H](CC(C)C)NC(=O)[C@H](Cc1ccccc1)NC(=O)[C@H](CCC(=O)O)NC(=O)[C@H](C)NC(=O)[C@H](CC(C)C)NC(=O)[C@H](CCCNC(=N)N)NC(=O)[C@H](CCC(N)=O)NC(=O)[C@@H](NC(=O)[C@H](C)NC(=O)[C@@H]1CSSC[C@H](NC(=O)[C@H](CCCCN)NC(=O)CC[C@H](NC(=O)CCCCCCCCCCCCCCCCCCC(=O)O)C(=O)O)C(=O)N[C@@H](CC(N)=O)C(=O)N[C@@H]([C@@H](C)O)C(=O)N[C@@H](C)C(=O)N[C@@H]([C@@H](C)O)C(=O)N1)[C@@H](C)O)C(=O)N1CCC[C@H]1C(=O)N[C@@H](CO)C(=O)N[C@@H](CO)C(=O)N[C@H](C(=O)N[C@@H](CC(N)=O)C(=O)N[C@H](C(=O)NCC(=O)N[C@@H](Cc1c[nH]cn1)C(=O)N[C@@H](CC(N)=O)C(=O)N[C@H](C(=O)N[C@@H](Cc1ccc(O)cc1)C(N)=O)[C@@H](C)O)C(C)C)[C@@H](C)O", "notes": "also called compound 17"}, "B2": {"name": "N^α1-[(4S)-4-carboxy-4-(19-carboxynonadecanoylamino)butanoyl]-[Glu14,Arg17,Pro21,Pro27,Pro29]-h-amylin (peptide)", "peptide": "{C20 diacid-γGlu}-KCNTATCATQRLAEFLRHSSPNFGAIPSPTNVGSNTY-NH2", "modifications": "disulfide 2-7", "SMILES": "CC[C@H](C)[C@H](NC(=O)[C@H](C)NC(=O)CNC(=O)[C@H](Cc1ccccc1)NC(=O)[C@H](CC(N)=O)NC(=O)[C@@H]1CCCN1C(=O)[C@H](CO)NC(=O)[C@H](CO)NC(=O)[C@H](Cc1c[nH]cn1)NC(=O)[C@H](CCCNC(=N)N)NC(=O)[C@H](CC(C)C)NC(=O)[C@H](Cc1ccccc1)NC(=O)[C@H](CCC(=O)O)NC(=O)[C@H](C)NC(=O)[C@H](CC(C)C)NC(=O)[C@H](CCCNC(=N)N)NC(=O)[C@H](CCC(N)=O)NC(=O)[C@@H](NC(=O)[C@H](C)NC(=O)[C@@H]1CSSC[C@H](NC(=O)[C@H](CCCCN)NC(=O)CC[C@H](NC(=O)CCCCCCCCCCCCCCCCCCC(=O)O)C(=O)O)C(=O)N[C@@H](CC(N)=O)C(=O)N[C@@H]([C@@H](C)O)C(=O)N[C@@H](C)C(=O)N[C@@H]([C@@H](C)O)C(=O)N1)[C@@H](C)O)C(=O)N1CCC[C@H]1C(=O)N[C@@H](CO)C(=O)N1CCC[C@H]1C(=O)N[C@H](C(=O)N[C@@H](CC(N)=O)C(=O)N[C@H](C(=O)NCC(=O)N[C@@H](CO)C(=O)N[C@@H](CC(N)=O)C(=O)N[C@H](C(=O)N[C@@H](Cc1ccc(O)cc1)C(N)=O)[C@@H](C)O)C(C)C)[C@@H](C)O", "notes": "also called compound 37"}, "B3": {"name": "N^α1-[(4S)-4-carboxy-4-(19-carboxynonadecanoylamino)butanoyl]-[Glu14,Arg17,Pro21,Pro27,Pro31]-h-amylin (peptide)", "peptide": "{C20 diacid-γGlu}-KCNTATCATQRLAEFLRHSSPNFGAIPSSTPVGSNTY-NH2", "modifications": "disulfide 2-7", "SMILES": "CC[C@H](C)[C@H](NC(=O)[C@H](C)NC(=O)CNC(=O)[C@H](Cc1ccccc1)NC(=O)[C@H](CC(N)=O)NC(=O)[C@@H]1CCCN1C(=O)[C@H](CO)NC(=O)[C@H](CO)NC(=O)[C@H](Cc1c[nH]cn1)NC(=O)[C@H](CCCNC(=N)N)NC(=O)[C@H](CC(C)C)NC(=O)[C@H](Cc1ccccc1)NC(=O)[C@H](CCC(=O)O)NC(=O)[C@H](C)NC(=O)[C@H](CC(C)C)NC(=O)[C@H](CCCNC(=N)N)NC(=O)[C@H](CCC(N)=O)NC(=O)[C@@H](NC(=O)[C@H](C)NC(=O)[C@@H]1CSSC[C@H](NC(=O)[C@H](CCCCN)NC(=O)CC[C@H](NC(=O)CCCCCCCCCCCCCCCCCCC(=O)O)C(=O)O)C(=O)N[C@@H](CC(N)=O)C(=O)N[C@@H]([C@@H](C)O)C(=O)N[C@@H](C)C(=O)N[C@@H]([C@@H](C)O)C(=O)N1)[C@@H](C)O)C(=O)N1CCC[C@H]1C(=O)N[C@@H](CO)C(=O)N[C@@H](CO)C(=O)N[C@H](C(=O)N1CCC[C@H]1C(=O)N[C@H](C(=O)NCC(=O)N[C@@H](CO)C(=O)N[C@@H](CC(N)=O)C(=O)N[C@H](C(=O)N[C@@H](Cc1ccc(O)cc1)C(N)=O)[C@@H](C)O)C(C)C)[C@@H](C)O", "notes": "also called compound 31"}, "B4": {"name": "N^α1-[(4S)-4-carboxy-4-(19-carboxynonadecanoylamino)butanoyl]-[Glu14,Arg17,Pro21,Pro27,Pro34]-h-amylin (peptide)", "peptide": "{C20 diacid-γGlu}-KCNTATCATQRLAEFLRHSSPNFGAIPSSTNVGPNTY-NH2", "modifications": "disulfide 2-7", "SMILES": "CC[C@H](C)[C@H](NC(=O)[C@H](C)NC(=O)CNC(=O)[C@H](Cc1ccccc1)NC(=O)[C@H](CC(N)=O)NC(=O)[C@@H]1CCCN1C(=O)[C@H](CO)NC(=O)[C@H](CO)NC(=O)[C@H](Cc1c[nH]cn1)NC(=O)[C@H](CCCNC(=N)N)NC(=O)[C@H](CC(C)C)NC(=O)[C@H](Cc1ccccc1)NC(=O)[C@H](CCC(=O)O)NC(=O)[C@H](C)NC(=O)[C@H](CC(C)C)NC(=O)[C@H](CCCNC(=N)N)NC(=O)[C@H](CCC(N)=O)NC(=O)[C@@H](NC(=O)[C@H](C)NC(=O)[C@@H]1CSSC[C@H](NC(=O)[C@H](CCCCN)NC(=O)CC[C@H](NC(=O)CCCCCCCCCCCCCCCCCCC(=O)O)C(=O)O)C(=O)N[C@@H](CC(N)=O)C(=O)N[C@@H]([C@@H](C)O)C(=O)N[C@@H](C)C(=O)N[C@@H]([C@@H](C)O)C(=O)N1)[C@@H](C)O)C(=O)N1CCC[C@H]1C(=O)N[C@@H](CO)C(=O)N[C@@H](CO)C(=O)N[C@H](C(=O)N[C@@H](CC(N)=O)C(=O)N[C@H](C(=O)NCC(=O)N1CCC[C@H]1C(=O)N[C@@H](CC(N)=O)C(=O)N[C@H](C(=O)N[C@@H](Cc1ccc(O)cc1)C(N)=O)[C@@H](C)O)C(C)C)[C@@H](C)O", "notes": "also called compound 32"}, "B5": {"name": "N^α1-[(4S)-4-carboxy-4-(19-carboxynonadecanoylamino)butanoyl]-[Glu14,Arg17,Pro21,Pro27,His35]-h-amylin (peptide)", "peptide": "{C20 diacid-γGlu}-KCNTATCATQRLAEFLRHSSPNFGAIPSSTNVGSHTY-NH2", "modifications": "disulfide 2-7", "SMILES": "CC[C@H](C)[C@H](NC(=O)[C@H](C)NC(=O)CNC(=O)[C@H](Cc1ccccc1)NC(=O)[C@H](CC(N)=O)NC(=O)[C@@H]1CCCN1C(=O)[C@H](CO)NC(=O)[C@H](CO)NC(=O)[C@H](Cc1c[nH]cn1)NC(=O)[C@H](CCCNC(=N)N)NC(=O)[C@H](CC(C)C)NC(=O)[C@H](Cc1ccccc1)NC(=O)[C@H](CCC(=O)O)NC(=O)[C@H](C)NC(=O)[C@H](CC(C)C)NC(=O)[C@H](CCCNC(=N)N)NC(=O)[C@H](CCC(N)=O)NC(=O)[C@@H](NC(=O)[C@H](C)NC(=O)[C@@H]1CSSC[C@H](NC(=O)[C@H](CCCCN)NC(=O)CC[C@H](NC(=O)CCCCCCCCCCCCCCCCCCC(=O)O)C(=O)O)C(=O)N[C@@H](CC(N)=O)C(=O)N[C@@H]([C@@H](C)O)C(=O)N[C@@H](C)C(=O)N[C@@H]([C@@H](C)O)C(=O)N1)[C@@H](C)O)C(=O)N1CCC[C@H]1C(=O)N[C@@H](CO)C(=O)N[C@@H](CO)C(=O)N[C@H](C(=O)N[C@@H](CC(N)=O)C(=O)N[C@H](C(=O)NCC(=O)N[C@@H](CO)C(=O)N[C@@H](Cc1c[nH]cn1)C(=O)N[C@H](C(=O)N[C@@H](Cc1ccc(O)cc1)C(N)=O)[C@@H](C)O)C(C)C)[C@@H](C)O", "notes": "also called compound 18"}},
  "note": "Numbered stars: 1 amine (or outer) side, 2 acyl side, 3 side chain; on linkers, the order of the positions; unused ones are H or OH. Bridge positions count the residues as written; N and C are the ends. * marks the point of attachment. C20 diacid = O=C(O)CCCCCCCCCCCCCCCCCCC(=O)*; γGlu = O=C(O)[C@H](CCC(=O)[*:2])N[*:1]",
  "data": [
    {"target": "T1, human amylin 3(a) receptor (human calcitonin receptor plus RAMP-3) (human, UniProt P30988 25-474; O60896 24-148, limits assumed)", "T1 sequence (looked up) 1": "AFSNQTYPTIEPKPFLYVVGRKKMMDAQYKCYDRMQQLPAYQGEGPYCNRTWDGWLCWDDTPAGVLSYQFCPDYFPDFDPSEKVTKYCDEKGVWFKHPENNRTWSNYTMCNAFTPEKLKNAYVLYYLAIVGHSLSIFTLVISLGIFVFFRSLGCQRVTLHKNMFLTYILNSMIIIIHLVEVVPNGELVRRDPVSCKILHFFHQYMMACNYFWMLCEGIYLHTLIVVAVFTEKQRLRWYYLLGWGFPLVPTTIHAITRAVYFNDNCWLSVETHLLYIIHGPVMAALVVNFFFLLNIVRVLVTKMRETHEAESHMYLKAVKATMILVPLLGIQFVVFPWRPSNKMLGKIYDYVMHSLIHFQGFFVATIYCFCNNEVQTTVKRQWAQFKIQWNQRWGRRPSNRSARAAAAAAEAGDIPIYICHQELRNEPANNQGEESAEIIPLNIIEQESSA", "T1 sequence (looked up) 2": "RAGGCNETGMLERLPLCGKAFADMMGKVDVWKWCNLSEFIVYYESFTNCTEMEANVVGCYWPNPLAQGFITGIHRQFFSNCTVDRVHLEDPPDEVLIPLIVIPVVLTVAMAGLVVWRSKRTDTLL", "experiment": "cell-based or functional assay", "units": {"hAmylin-R funct. EC50": "nM"}, "values": [
      {"binder": "B1", "Ratio hCT/hAmylin funct.": 8.8, "hAmylin-R funct. EC50": 0.268},
      {"binder": "B2", "Ratio hCT/hAmylin funct.": 4, "hAmylin-R funct. EC50": 0.092},
      {"binder": "B3", "Ratio hCT/hAmylin funct.": 6.4, "hAmylin-R funct. EC50": 0.112},
      {"binder": "B4", "Ratio hCT/hAmylin funct.": 6.6, "hAmylin-R funct. EC50": 0.05},
      {"binder": "B5", "Ratio hCT/hAmylin funct.": 4.8, "hAmylin-R funct. EC50": 0.154}
    ]},
    {"target": "T2, human calcitonin receptor (human, UniProt P30988 25-474)", "T2 sequence (looked up)": "T1 sequence (looked up) 1", "experiment": "cell-based or functional assay", "units": {"hCTR funct. EC50": "nM"}, "values": [
      {"binder": "B1", "hCTR funct. EC50": 2.35},
      {"binder": "B2", "hCTR funct. EC50": 0.372},
      {"binder": "B3", "hCTR funct. EC50": 0.717},
      {"binder": "B4", "hCTR funct. EC50": 0.327},
      {"binder": "B5", "hCTR funct. EC50": 0.742}
    ]},
    {"target": "T1, human amylin 3(a) receptor (human …)", "experiment": "SPA competition binding, displacement of 125I-rat amylin from membranes of Amylin 3(a)/CRE-luc BHK cells (Assay V)", "experimental": "The binding assay was performed using scintillation proximity assay (SPA) beads (RPNQ0001) from PerkinElmer and cell membranes from the Amylin 3(a)/CRE-luc cells (as described in Assay (II)) were used. Membranes were prepared in the following way; the cells were rinsed with PBS and incubated with Versene for approximately 5 min before harvesting. The cells were flushed with PBS and the cell-suspension was centrifuged for 5 min at 1000 rpm. Cells were homogenized (ultrathurrax) in a buffer containing 20 mM Na-HEPES and 10 mM EDTA (pH 7.4) and centrifuged at 20.000 rpm for 15 min. The resulting pellet was resuspended, homogenized and centrifuged (20.000 rpm, 15 min) in a buffer containing 20 mM Na-HEPES and 0.1 mM EDTA (pH 7.4, buffer 2). The resulting pellet was resuspended in buffer 2 and protein concentration was measured (BCA protein Assay, Pierce). The homogenate was kept cold during the whole procedure. The membranes were kept at −80° C. until use. The assay was performed in a 384 well Optiplate (PerkinElmer) in a total volume of 40 ul. Membranes were mixed with SPA beads. Final concentration of membranes 35 ng/μL final and SPA beads was 0.05 mg/well. Test-compounds were dissolved in DMSO and further diluted in assay buffer (50 mM Hepes, pH 7.4, 1 mM CaCl2, 5 mM MgCl₂, 0.1% OA and 0.02% Tween20). […] The final mixture was incubated with shaking at 400 rpm for 120 min at 25° C. prior to centrifugation (1500 rpm, 10 min). Samples were analyzed on TopCounter™ (Packard). The IC₅₀ was calculated using (one site binding competition analysis) GraphPad Prism5 as a measure of receptor affinity.", "units": {"IC50": "nM"}, "values": [
      {"binder": "B1", "IC50": 0.878},
      {"binder": "B2", "IC50": 0.97},
      {"binder": "B3", "IC50": 0.204},
      {"binder": "B4", "IC50": 0.1},
      {"binder": "B5", "IC50": 0.554}
    ]}
  ]
}
